Columns and labels:
[1] = system: SMGBP1 (SMG Binding Protein 1)
[2] = system: protein having a molecular weight of 70 kDa (p70)

Sequence of SMGBP1 (SMG Binding Protein 1) (chain, as listed by the source): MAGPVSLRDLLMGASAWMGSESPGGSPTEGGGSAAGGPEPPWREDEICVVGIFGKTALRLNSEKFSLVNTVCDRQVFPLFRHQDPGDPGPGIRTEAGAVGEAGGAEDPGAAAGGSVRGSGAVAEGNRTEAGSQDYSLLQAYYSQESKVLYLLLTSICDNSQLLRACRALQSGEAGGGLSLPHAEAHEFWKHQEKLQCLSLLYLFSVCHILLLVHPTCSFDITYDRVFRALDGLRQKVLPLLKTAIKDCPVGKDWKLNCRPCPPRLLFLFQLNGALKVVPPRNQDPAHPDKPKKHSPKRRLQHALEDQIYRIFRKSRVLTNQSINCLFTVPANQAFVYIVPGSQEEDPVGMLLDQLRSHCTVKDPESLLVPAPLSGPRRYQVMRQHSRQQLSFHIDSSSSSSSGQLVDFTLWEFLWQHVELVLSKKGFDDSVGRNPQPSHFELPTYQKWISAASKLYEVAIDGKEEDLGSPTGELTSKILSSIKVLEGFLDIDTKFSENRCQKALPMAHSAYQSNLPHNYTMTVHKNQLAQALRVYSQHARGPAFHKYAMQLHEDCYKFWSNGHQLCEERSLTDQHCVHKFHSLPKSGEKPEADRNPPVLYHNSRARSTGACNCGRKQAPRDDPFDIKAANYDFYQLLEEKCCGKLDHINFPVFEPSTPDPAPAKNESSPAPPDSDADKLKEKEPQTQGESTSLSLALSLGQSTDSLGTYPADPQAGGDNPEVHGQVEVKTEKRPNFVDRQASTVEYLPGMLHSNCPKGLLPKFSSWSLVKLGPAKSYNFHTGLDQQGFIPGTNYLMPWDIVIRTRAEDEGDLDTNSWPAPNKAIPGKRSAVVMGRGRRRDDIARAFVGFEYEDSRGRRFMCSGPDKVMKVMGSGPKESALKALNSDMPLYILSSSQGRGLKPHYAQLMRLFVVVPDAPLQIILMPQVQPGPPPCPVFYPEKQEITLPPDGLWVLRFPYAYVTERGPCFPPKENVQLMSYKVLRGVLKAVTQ

human SMG-1 (hSMG-1)
phosphorylation in the hSMG-1 immunoprecipitate (32P autoradiography) [1]: a protein having a molecular weight of 130 kDa (p130) and a protein having a molecular weight of 70 kDa (p70), were detected as phosphorylated proteins. The patterns of phosphorylation thereof accorded exactly with those of autophosphorylation of hSMG-1.
phosphorylation in the hSMG-1 immunoprecipitate (32P autoradiography) [2]: a protein having a molecular weight of 130 kDa (p130) and a protein having a molecular weight of 70 kDa (p70), were detected as phosphorylated proteins. The patterns of phosphorylation thereof accorded exactly with those of autophosphorylation of hSMG-1.

From patent publication US20050196797
